Columns and labels:
[1] = molecular target: T1, PPARβ (Homo sapiens, UniProt Q03181); test: Reporter gene assay, ERRγ3 coexisted with PPARβ, pGVP2-PPRE1 in CV-1 cells; format: cell-based; conditions: 10^−5 M carbacyclin, FIG. 24
T1 construct: expressed in transfected cells; host or cells: CV-1 (African green monkey kidney)
T1 sequence (Q03181 1-441): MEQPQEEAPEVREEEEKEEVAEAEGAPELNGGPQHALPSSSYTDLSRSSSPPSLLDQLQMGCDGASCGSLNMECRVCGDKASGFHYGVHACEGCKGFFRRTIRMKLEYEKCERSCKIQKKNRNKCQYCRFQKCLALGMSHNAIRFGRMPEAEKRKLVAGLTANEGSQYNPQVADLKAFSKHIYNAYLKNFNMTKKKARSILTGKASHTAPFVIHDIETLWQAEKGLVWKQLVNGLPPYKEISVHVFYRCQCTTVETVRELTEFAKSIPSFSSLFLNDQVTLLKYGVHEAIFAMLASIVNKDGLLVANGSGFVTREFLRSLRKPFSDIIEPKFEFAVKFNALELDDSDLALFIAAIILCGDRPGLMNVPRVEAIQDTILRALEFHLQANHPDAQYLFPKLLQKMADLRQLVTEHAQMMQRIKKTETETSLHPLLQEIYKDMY
T1 sequence (P19793 1-462 partner): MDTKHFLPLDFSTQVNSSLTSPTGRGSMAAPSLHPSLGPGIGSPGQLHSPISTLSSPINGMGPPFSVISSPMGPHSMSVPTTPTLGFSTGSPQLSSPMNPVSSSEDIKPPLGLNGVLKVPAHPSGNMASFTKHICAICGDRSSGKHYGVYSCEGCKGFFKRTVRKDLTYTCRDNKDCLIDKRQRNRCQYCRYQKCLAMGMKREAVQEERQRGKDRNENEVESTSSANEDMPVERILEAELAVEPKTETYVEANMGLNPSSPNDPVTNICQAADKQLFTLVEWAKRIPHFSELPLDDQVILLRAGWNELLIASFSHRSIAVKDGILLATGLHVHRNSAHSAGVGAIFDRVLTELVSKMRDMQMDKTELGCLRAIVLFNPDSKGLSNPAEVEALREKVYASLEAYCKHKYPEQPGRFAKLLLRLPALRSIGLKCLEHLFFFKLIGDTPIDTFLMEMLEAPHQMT
Description: (§1) Transfection was performed as follows: CV-1 cells were resuspended in DMEM supplemented with 10% fetal bovine serum, 2000 U/l of penicillin G, and 100 mg/l of streptomycin to a concentration of 2×10^5 cells/2.5 ml. This was then seeded to a 6-well plate at 2.5 ml per well, and incubated for 18-24 hours in a CO2 incubator at 37° C. and 5% CO2. 1 μg of each of the expression plasmids for the transcription factors, the luciferase reporter plasmid, and another luciferase reporter plasmid used for normalization of the measured values (pRL-TK), were dissolved in Opti-MEM (Gibco BRL), to a total of 150 μl. […] Luciferase activity was measured using the Dual-Luciferase™ Reporter Assay System (Promega). […] The protocol for measurement was as follows: 50 μl of Luciferase Assay Reagent II was added to each well, stirred for 0.3 seconds, and measured for one second. 50 μl of Stop&Glo™ Reagent was then added, stirred for 0.3 seconds, and measured for one second. The measured values for firefly luciferase activity were corrected by dividing by the value for the Renilla luciferase activity, the internal control. Average values and standard errors were calculated from triplicate samples.
(§2) The effect of ligands on the function of ERRγ3 in enhancing the transcriptional activation function of peroxisome proliferator activated receptor (PPAR) α, β, or γ was evaluated using the reporter gene assay (FIG. 24). […]

[2] = molecular target: T2, PPARα (Homo sapiens, UniProt Q07869); test: Reporter gene assay, ERRγ3 coexisted with PPARα, pGVP2-PPRE1 in CV-1 cells; format: cell-based; conditions: 10^−5 M bezafibrate, FIG. 24
T2 construct: expressed in transfected cells; host or cells: CV-1 (African green monkey kidney)
T2 sequence (Q07869 1-468): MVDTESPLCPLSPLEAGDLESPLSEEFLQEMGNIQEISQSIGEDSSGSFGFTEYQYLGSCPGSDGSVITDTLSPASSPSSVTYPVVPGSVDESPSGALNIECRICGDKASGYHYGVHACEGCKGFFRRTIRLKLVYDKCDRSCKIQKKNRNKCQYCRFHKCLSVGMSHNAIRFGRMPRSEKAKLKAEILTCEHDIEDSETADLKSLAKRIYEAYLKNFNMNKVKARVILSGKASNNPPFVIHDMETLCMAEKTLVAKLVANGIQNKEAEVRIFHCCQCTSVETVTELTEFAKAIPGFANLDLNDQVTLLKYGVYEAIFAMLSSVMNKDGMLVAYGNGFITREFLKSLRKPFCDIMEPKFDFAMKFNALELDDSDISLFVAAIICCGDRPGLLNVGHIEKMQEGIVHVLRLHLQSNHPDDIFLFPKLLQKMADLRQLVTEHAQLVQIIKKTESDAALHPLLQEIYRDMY
T2 sequence (P19793 1-462 partner): T1 sequence (P19793 1-462 partner)
Description: as §1, §2

B1: ERRγ3: novel ERRγ isoform, nuclear receptor protein of 396 amino acids (SEQ ID NO: 2) lacking part of the DNA binding domain (protein, listed as Homo sapiens)
chain: MSNKDRHIDSSCSSFIKTEPSSPASLTDSVNHHSPGGSSDASGSYSSTMNGHQNGLDSPPLYPSAPILGGSGPVRKLYDDCSSTIVEDPQTKCEYMLNSMPKRLCLVCGDIASGYHYGVASCEACKAFFKRTIQGVRLDRVRGGRQKYKRRIDAENSPYLNPQLAQPAKKPYNKIVSHLLVAEPEKIYAMPDPTVPDSDIKALTTLCDLADRELVVIIGWAKHIPGFSTLSLADQMSLLQSAWMEILILGVVYRSLSFEDELVYADDYIMDEDQSKLAGLLDLNNAILQLVKKYKSMKLEKEEFVTLKAIALANSDSMHIEDVEAVQKLQDVLHEALQDYEAGQHMEDPRRAGKMLMTLPLLRQTSTKAVQHFYNIKLEGKVPMHKLFLEMLEAKV
With B1 the “modifying effect on the transcriptional stimulation activity of PPARβ” value [1] was “did not show any significant modifying effect” and the “modifying effect on the transcriptional stimulation activity of PPARα” value [2] was “did not show any significant modifying effect”.
